Sequences and labels used below:
B1: YfiB(27–168) (domain or fragment)
chain: QTKPPQTGLSAEQIAVLQEQGFELRDEGWEFGMSSKVLFGNNLDRLNPDSRNTLTKIARALLAVDIDKVRLEGHTDNYGDEGYNQKLSERRAESVAAVFREAGMPAANIEVRGLGMSKPVADNKTRAGRSENRRVAIIVPAE
notes: signal peptide 1-25 and lipid acceptor Cys26 left out; cloned in pGEX-6p-1; GST removed with PPase on the resin; also called PA1119; longer YfiB construct; source: E. coli, purified (GST column, Hitrap Q, Superdex75)
B2: YfiB(59–168) (domain or fragment)
chain: MSSKVLFGNNLDRLNPDSRNTLTKIARALLAVDIDKVRLEGHTDNYGDEGYNQKLSERRAESVAAVFREAGMPAANIEVRGLGMSKPVADNKTRAGRSENRRVAIIVPAE
notes: cloned in pET-32a; tag removed with PPase on the resin; also called shorter YfiB construct; source: E. coli, purified (Ni-NTA, Hitrap S, Superdex75)
B3: YfiR(C71S) (domain or fragment)
chain: DDARTSIEQRSNAVSQVLLGIFSYVRWPKEPAVLQLSVVGPTEYADGLLRGMVQANGRRVHAERRAVDNPDLGTLCNVIYLGVVDERERQQVFRSLAGHPVLSISERGTECSVGSMFCLNVGGPRITFEANLDSIARSGVRVHPSVLKLARRQATP
notes: YfiR (PA1121) of Pseudomonas aeruginosa PAO1, residues 35-190, with C71S; the methods describe only the wild-type construct; also called C71S mutant of YfiR; not shown: Trx, N-terminal, cleaved
B4: YfiR (residues 35–190) (domain or fragment)
chain: B3 chain with S37C
notes: YfiR (PA1121) of Pseudomonas aeruginosa PAO1, residues 35-190; the N-terminal 34 residues (signal peptide) left out; cloned in pET-32a; purified on Ni-NTA, tag removed with PPase; also called PA1121; wild-type YfiR; source: E. coli, purified (Ni-NTA, ResourceS, Superdex75); not shown: Trx, N-terminal, cleaved

For data set [1], the target named is YfiB W55L (Pseudomonas aeruginosa PAO1) (UniProt Q9I4L6). The data set can be described thus: AUC; single purified proteins, 400 μL at 3 mg ml^-1 in 20 mM Tris-HCl, 200 mM NaCl; 42,000 rpm, 277 K, interference detection; SEDFIT.
Data set [2] concerns the molecule itself. The data set is described as above.
For the data set “YfiR (residues 35–190)”, the target named is B4. Kind of data set: AUC; YfiB-YfiR complex at 10 mg ml^-1 in 20 mM Tris-HCl, 200 mM NaCl; 42,000 rpm, 277 K, interference detection; SEDFIT. The conditions noted are these: both partners purified.
The target of the data set “YfiR(C71S)” is B3. The data set can be described thus: crystal structure; YfiR(C71S)-YfiB(59–168) complex, 1.97 Å; proteins mixed 1:1; 0.1 M HEPES pH 7.5, 1.8 M ammonium sulfate, 293 K. Particulars: both partners purified.
Data set [3] deals with the molecule itself. The data set is described as above.
Data set [4] deals with the molecule itself. Kind of data set: AUC; YfiB-YfiR complex at 10 mg ml^-1 in 20 mM Tris-HCl, 200 mM NaCl; 42,000 rpm, 277 K, interference detection; SEDFIT.

This is an account of results in article PMC4655355, “Structural insights into YfiR sequestering by YfiB in Pseudomonas aeruginosa PAO1” (Scientific Reports, 2015).

Numbering of substitutions follows the chain as printed. Numbers in names are those of the source.

One may read the stoichiometry N as the number of molecules, sites or subunits per partner or assembly. “YfiB W55L (from UniProt Q9I4L6 27-168) (domain or fragment)”: the stoichiometry N in data set [1] was 2.
Take B1: the “stoichiometry N” value in data set [2] was found to be 2.
Regarding B2, in the data set with YfiR (residues 35–190), the “stoichiometry N” value was 1 YfiB per YfiR (2:2). Further, the binding result with YfiR(C71S) is listed as “binds”.
Regarding B3, in data set [3], the binding result is reported as “binds”.
In the case of B4, the “stoichiometry N” value in data set [4] worked out at 2.
